The text below walks through data of article PMC4240585, “Solution Structure of the SGTA Dimerisation Domain and Investigation of Its Interactions with the Ubiquitin-Like Domains of BAG6 and UBL4A” (PLoS ONE, 2014).

Series [1] has as its target T1, UBL domain of UBL4A (UBL4A_UBL), residues 1-74 (human, UniProt P11441 1-74, RED-NHS (amine reactive) dye, in the MST experiment only).
T1 sequence (looked up): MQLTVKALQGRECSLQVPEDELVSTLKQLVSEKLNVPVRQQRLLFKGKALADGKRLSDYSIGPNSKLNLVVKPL
Description: ITC; 30 °C, 100 mM MES pH 6.0, 200 mM KCl; 20 injections of 2 µL SGTA_NT (dimer, 500 µM) into UBL at 50 µM (monomer); independent binding sites model. The settings on record: both partners purified. Background: Isothermal titration calorimetry measures the heat released or taken up as one component is titrated into another.

Series [2] has as its target T1, UBL domain of UBL4A (UBL4A_UBL), …. The series is described as follows: MST; labelled UBL at 0.4 µM, unlabelled SGTA_NT 400 µM to 24.4 nM; 100 mM MES pH 6.0, 150 mM KCl, 0.5 mM TCEP; 25 °C; Monolith NT.115. The settings on record: both partners purified.
Series [3] deals with the molecule itself. The series is described as follows: NMR solution structure; SGTA_NT dimer; mixed isotope labelling, filtered NOESY for intermolecular NOEs; 100 mM MES pH 6.0, 150 mM KCl, 35 °C; ARIA2.1.

B1: SGTA N-terminal dimerisation domain (SGTA_NT), residues 1-69 (domain or fragment, UniProt O43765 1-69, looked up)
chain: MDNKKRLAYAIIQFLHDQLRHGGLSSDAQESLEVAIQCLETAFGVTVEDSDLALPQTLPEIFEAAATGK
On to B1, for which the Kd in series [1] worked out at 3 µM; in series [2], 3.7 µM. This molecule yielded a dH in series [1] of 5900 ± 110. The “stoichiometry N” value in series [1] is 0.949 ± 0.013; in series [2], 1 SGTA dimer: UBL monomer; in series [3], 2.

As usually defined, the Kd is the free concentration of one partner at which half of the binding sites on the other are occupied at equilibrium, for simple one-to-one binding. A higher Kd goes with lower affinity. Broadly, the stoichiometry N is the number of molecules, sites or subunits per partner or assembly.
